According to patent US20150166643A1 (Alexion, published 2015):

Assays:
[1] = target: T1, human factor B (purified, Complement Technology A135) (human, UniProt P00751 26-764); test: BLI (Octet), binding to factor B (summary table)
T1 construct: also called fB; human complement factor B
Description: (§1) Binding kinetics of TA106 and TA106 S33A Fab (CLS016) to Factor B were analyzed using a FortéBio® Octet® biosensor (FortéBio, Inc.) in a similar protocol as described previously. In one exemplary experiment, Factor B (Complement Technology) was biotinylated at a 1:10 ratio and coupled to a streptavidin biosensor at a concentration of 5 μg/mL for a loading time of 600 seconds. Biosensors were briefly dipped in 1×KB as a wash for 30 seconds. Associations with a titration series of Fab with a concentration range from 100 to 3 nM (diluted in 1×KB) were carried out for 600 seconds. Fabs were dissociated from the biosensor by immersing the biosensor in 1×KB during the 600 second dissociation phase. As depicted in FIGS. 19 and 20, both TA106 Fab and TA106-derivative S33A Fab (CLS016) bound to Factor B at various concentrations, resulting in nearly identical association and dissociation profiles. Kinetic assessments using partial local fit parameters yielded identical values for KD/kₐ/Kd at each concentration tested.

[2] = target: T1, human factor B (purified, Complement …); test: SPR (Biacore), factor B coupled to the chip, free TA106 Fab 0.19-25 nM flowed; Chi2 1.58 (the text rounds to 1.2 nM)
Description: (§2) Binding kinetics of TA106 Fab and variant S33A Fab (CLS016) were further characterized using Surface Plasmon Resonance (SPR) technology. In one exemplary experiment, both Fabs were captured on chips of a Biacore 3000 analyzer and samples of human factor B of different concentrations were flowed as the antigen over the surface to model soluble human factor B binding, using protocols recommended by the manufacturer and described previously in the instant disclosure. […] In another exemplary experiment, the affinities of both Fabs were also measured by reversing the orientation of the previous experiment. Specifically, human factor B was directly coupled to one flow cell of a CM5 chip. The second flow cell was used as a blank reference with no coupled ligand. CLS016 or TA106 Fab was then flowed on both flow cells. Concentrations between 0.19 to 25 nM were run with duplicates. The surface was regenerated between each cycle.

[3] = target: T1, human factor B (purified, Complement …); test: BLI (Octet), biotinylated factor B on streptavidin biosensor, Fab at 6.25 nM
Description: as §1

[4] = target: T1, human factor B (purified, Complement …); test: SPR (Biacore), factor B coupled to the chip, free TA106 Fab 0.19-25 nM flowed; Chi2 1.58
Description: as §2

[5] = target: T1, human factor B (purified, Complement …); test: SPR (Biacore 3000), Fab captured on chip, soluble human factor B 3.1-100 nM
Description: as §2

[6] = target: T1, human factor B (purified, Complement …); test: SPR (Biacore), TA106 Fab captured on anti-Fab surface, soluble factor B 3.1-100 nM flowed; Chi2 0.206
Description: as §2

[7] = target: T1, human factor B (purified, Complement …); test: SPR (Biacore), factor B bound directly to the chip, free TA106 Fab flowed; Chi2 0.901
Description: The difference in the two Biacore data sets could be explained as either that the conformation of factor B changes when binding to the surface or that not all commercial factor B is active. This later Biacore experiment (with a fixed concentration of factor B bound to the chip) removed the factor B concentration from the calculation.

[8] = target: T1, human factor B (purified, Complement …); test: ELISA, plate coated with human factor B, anti-human kappa light chain HRP
Description: The binding activities of these mAbs towards factor B were analyzed by ELISA using standard protocols. In one exemplary experiment, MaxiSorp™ ELISA plates (Nunc, #439454, Rochester, N.Y.) were coated with 50 μL of human factor B (Complement Technology, A135, 1 mg/mL, lot 14c) at a concentration of 0.5 μg/mL in carbonate coating buffer (0.795 g carbonate+1.46 g bicarbonate+1 mL 1% NaN₃ (final concentration of 0.002%) in 500 mL water, pH 9.6 (lot 02 August 10)). Plates then were covered with plate sealers and incubated at 37±1° C. for one hour. Following coating, wells were emptied of reagent and washed in a BioTek® ELx405 plate washer (BioTek, Winooski, Vt.) for three times with 200 μL wash solution (PBS/0.05% Tween 20) per well. Following washes, wells were blocked with 100 μL of BSA (1% w/v) and incubated for one hour at room temperature. Wells were then washed again as described above. Fifty microliter samples (i.e., TA106 Fab, CLS011 mAb, CLS012 mAb, and CLS013 mAb) were then added to wells and incubated for one hour at room temperature. […] The plate was read on a Benchmark™ microplate reader (Bio-Rad Laboratories, Hercules, Calif.) at 450 nm. Standard curves were plotted with 4 parameter fit with DeltaSoft® 1.6 software, and sample concentrations were determined from the standard curves.

[9] = target: T1, human factor B (purified, Complement …); test: BLI (Octet), biotinylated factor B on streptavidin biosensor, Fab at 25 nM
Description: as §1

T1 sequence (P00751 26-764): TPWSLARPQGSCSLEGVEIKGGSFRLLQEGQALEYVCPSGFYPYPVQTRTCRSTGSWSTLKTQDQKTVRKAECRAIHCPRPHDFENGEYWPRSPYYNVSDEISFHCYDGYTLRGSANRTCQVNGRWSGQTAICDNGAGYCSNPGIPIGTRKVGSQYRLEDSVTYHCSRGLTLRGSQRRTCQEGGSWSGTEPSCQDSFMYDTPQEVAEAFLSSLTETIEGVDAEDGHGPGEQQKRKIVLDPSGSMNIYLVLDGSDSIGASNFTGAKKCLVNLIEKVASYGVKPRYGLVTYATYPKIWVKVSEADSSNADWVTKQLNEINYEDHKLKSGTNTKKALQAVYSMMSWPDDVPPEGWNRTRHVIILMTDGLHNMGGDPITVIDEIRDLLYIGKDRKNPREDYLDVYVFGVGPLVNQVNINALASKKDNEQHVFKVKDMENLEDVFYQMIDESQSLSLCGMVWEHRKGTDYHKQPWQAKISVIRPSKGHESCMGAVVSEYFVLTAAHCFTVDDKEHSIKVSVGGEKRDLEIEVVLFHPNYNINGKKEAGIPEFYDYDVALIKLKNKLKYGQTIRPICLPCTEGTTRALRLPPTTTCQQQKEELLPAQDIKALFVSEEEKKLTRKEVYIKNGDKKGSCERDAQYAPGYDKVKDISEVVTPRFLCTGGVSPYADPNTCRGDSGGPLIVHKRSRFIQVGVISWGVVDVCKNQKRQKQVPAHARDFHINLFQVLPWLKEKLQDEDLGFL

B1: TA106 Fab (humaneered anti-factor B Fab, expressed in E. coli) (Fab, V domains shown)
VH: QVQLVQSGAEVKKPGASVKVSCKASGYSFTDYYMTWVRQAPGQGLEWMGWINPNSGGTKYAQKFQGRVTMTRDTSISTAYMELSRLRSDDTAVYYCARGYYANSAWFAYWGQGTLVTVSS
VL: DIVMTQSPDSLAVSLGERATINCKSSQSLLNSSTSKNYLAWYQQKPGQPPKLLIYWASTRESGVPDRFSGSGSGTDFTLTISSLQAEDVAVYYCKQVYNLPWTFGQGTKLEIKR
notes: Fab made in E. coli by Xoma, not glycosylated; also called Fab TA106; TA106 wild type Fab
- Kd [1]: 20 to 30 nM
- Kd [2]: 1.17 nM
- Kd [3]: 41.6 nM
- koff [3]: 0.00294 s⁻¹
- kon [3]: 70600 M⁻¹ s⁻¹
- koff [4]: 0.00333 s⁻¹
- kon [4]: 2.84e+06 M⁻¹ s⁻¹
- Kd [5]: ~30.6 nM
- koff [6]: 0.00338 s⁻¹
- kon [6]: 136000 M⁻¹ s⁻¹
- koff [7]: 0.00305 s⁻¹
- kon [7]: 2.2e+06 M⁻¹ s⁻¹
- EC50 [8]: 0.57 nM
- Kd [9]: 22.4 nM
- koff [9]: 0.00352 s⁻¹
- kon [9]: 157000 M⁻¹ s⁻¹
